In patent publication US20170044230A1 (USTAV ORGANICKE CHEMIE A BIOCHEMIE AV CR, V.V.I., priority 2014, published 2017):
Non-standard residues stand in square brackets, D forms with d. Residues, ends and D or L forms follow the SMILES beside them. No end group written: not given here. *: point of attachment. 1Nal = N[C@@H](Cc1cccc2ccccc12)C(=O)O; Palmitoyl = CCCCCCCCCCCCCCCC(=O)*; Myristoyl = CCCCCCCCCCCCCC(=O)*; Decanoyl = CCCCCCCCCC(=O)*; Octanoyl = CCCCCCCC(=O)*; Dap = NC[C@H](N)C(=O)O; Sar = CNCC(=O)O

What was measured:
human GHS-R1a receptor = target: T1, human GHS-R1a receptor (Homo sapiens, UniProt Q92847); test: Competitive binding studies (displacement of 125I-ghrelin); conditions: relative to ghrelin = 100
T1 construct: purchased Multispan, Hayward, Calif., USA; host or cells: HEK293T cells, isolated plasma membranes
T1 sequence (Q92847 whole entry): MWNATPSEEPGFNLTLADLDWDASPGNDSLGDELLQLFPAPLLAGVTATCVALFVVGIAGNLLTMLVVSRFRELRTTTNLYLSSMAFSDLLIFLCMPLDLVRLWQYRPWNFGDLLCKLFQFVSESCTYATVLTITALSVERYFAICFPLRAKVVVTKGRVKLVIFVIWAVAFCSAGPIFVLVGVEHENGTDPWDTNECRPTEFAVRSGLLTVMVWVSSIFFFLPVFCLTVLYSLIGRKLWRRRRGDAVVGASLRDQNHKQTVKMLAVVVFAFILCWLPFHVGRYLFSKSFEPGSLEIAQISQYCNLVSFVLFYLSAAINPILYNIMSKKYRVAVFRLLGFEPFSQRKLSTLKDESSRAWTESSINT
Method: Isolated plasma membranes from the HEK293T cells with transfected human GHS-R1a receptor (Multispan, Hayward, Calif., USA) were used. […] Experiments were carried out in duplicates at least three times. Competitive binding curves were plotted using GraphPad Prism Software (San Diego, Calif., USA) while comparing the best fit for single binding sites models.

fed C57BL/6 male mice = test: Effect of SC administered ghrelin analogs on food intake; assay type: in vivo; conditions: for maximal effect at 5 mg/kg on food intake: SC 5 mg/kg, evaluated 480 min after administration
Method: All of the experiments followed the ethical guidelines for animal experiments and Czech Republic law 246/1992 and were approved by the committee for experiments with laboratory animals of the Academy of Sciences of the Czech Republic. Male C57BL/6 mice (Charles River, Germany) were housed at a temperature 22±2° C. under a daily cycle of 12/12 h light/dark (light from 6:00) with free access to water and a standard chow diet St-1 which contained […] of calories from protein, fat and carbohydrate, respectively, and its energy content was 3.4 kcal/g (Mlýn Kocanda, Praha, Czech Republic). Mice were placed into separate cages for one week before experiment, they had free access to water and food pellets. Closely before the experiment, the food pellets were removed from the cages. […] 15 min after the injection, mice were given preweighed food pellets. Food intake was monitored for 8-10 hours at 30-min intervals. Mice had free access to water during the experiment. Experiments were performed at least twice for each tested compound, each experimental group had at least 5 mice.
Data from food intake experiments were analyzed by one-way ANOVA followed by Dunnett's post-hoc test using GraphPad Prism Software (San Diego, Calif., USA), P<0.05 was considered statistically significant. ED50 values were calculated using GraphPad Prism Software as the dose of the tested compound required to elicit half-maximal effect at 250 min after administration of the corresponding compound.
Food intake was monitored for […] after administration of the compounds. ED50 values were determined 250 min after administration. Maximal effect on food intake was evaluated […] after administration of the compounds at a dose of 5 mg/kg of body weight. NT—not tested.

[1] = target: T2, human GHS-R1a receptor (growth hormone secretagogue receptor 1a) (human, UniProt Q92847 1-366); test: cell-based or functional assay
T2 sequence (Q92847 whole entry): as above

[2] = target: T2, human GHS-R1a receptor (growth hormone …); test: competitive displacement of 125I-ghrelin, membranes of HEK293T cells with transfected human GHS-R1a
Method: Competitive binding studies were performed according to the principles of Motulsky and Neubig (Motulsky & Neubig, 2002). Isolated plasma membranes from the HEK293T cells with transfected human GHS-R1a receptor (Multispan, Hayward, Calif., USA) were used. […] The binding reaction was stopped by the addition of ice-cold washing buffer (20 mM Tris pH 7.4, 10 mM MgCl₂, 2.5 mM EDTA, 0.015% Triton X-100) followed by rapid filtration over GF/C filters (Whatman, Clifton, N.J., USA) presoaked with 0.5% PEI in binding buffer using a Brandel cell harvester (Brandel Inc., Gaithersburg, Md., USA). Bound radioactivity was determined by gamma counting (Wizard 1470 Automatic Gamma Counter; PerkinElmer Life and Analytical Sciences, Waltham, Mass.).

Molecule	% of ghrelin binding (human GHS-R1a receptor) [%]	maximal effect at 5 mg/kg on food intake (fed C57BL/6 male mice)	ED50 (250 min after injection), effect on food intake (fed C57BL/6 male mice; SC, fed mice, 250 min after injection) [mg/kg]	IP1 - EC50 [nM] (inositol phosphate accumulation, IP-One HTRF) [1]	% of ghrelin binding [2] [%]	Ki [2] [nM]	Ca^2+ - EC50 [nM] (intracellular calcium mobilization, Fluo-4AM) [1]
CCCCCCCCCCCCCCCC(=O)NCCCC[C@H](NC(=O)[C@H](C)NC(=O)[C@@H]1CCCN1C(=O)[C@@H]1CCCN1C(=O)[C@H](CCCCN)NC(=O)[C@H](CCCCN)NC(=O)[C@H](CO)NC(=O)[C@H](CCC(=O)O)NC(=O)[C@H](CCCCN)NC(=O)[C@H](CCCNC(=N)N)NC(=O)[C@H](CCC(N)=O)NC(=O)[C@H](CCC(N)=O)NC(=O)[C@H](C)NC(=O)[C@H](CCCCN)NC(=O)[C@H](CCC(N)=O)NC(=O)[C@H](Cc1c[nH]cn1)NC(=O)[C@H](CCC(=O)O)NC(=O)[C@@H]1CCCN1C(=O)[C@H](CO)NC(=O)[C@H](CC(C)C)NC(=O)[C@H](Cc1cccc2ccccc12)NC(=O)[C@H](CNC(=O)CCCCCCC)NC(=O)[C@H](CO)NC(=O)CNC)C(=O)N[C@@H](CC(C)C)C(=O)N[C@@H](CCC(N)=O)C(=O)N1CCC[C@H]1C(=O)N[C@@H](CCCNC(=N)N)C(=O)O [Analog 9] (H-[Sar]S[Dap](Octanoyl)[1Nal]LSPEHQKAQQRKESKKPPAK(Palmitoyl)LQPR-OH; N-terminus and C-terminus assumed)	5	171.1 % of Dpr^3ghr	–	–	–	–	–
CCCCCCCC(=O)NC[C@H](NC(=O)[C@H](CO)NC(=O)CNC)C(=O)N[C@@H](Cc1ccc(Cl)c(Cl)c1)C(=O)N[C@@H](CC(C)C)C(=O)N[C@@H](CO)C(=O)N1CCC[C@H]1C(=O)N[C@@H](CCC(=O)O)C(=O)N[C@@H](Cc1c[nH]cn1)C(=O)N[C@@H](CCC(N)=O)C(=O)N[C@@H](CCCCN)C(=O)N[C@@H](C)C(=O)N[C@@H](CCC(N)=O)C(=O)N[C@@H](CCC(N)=O)C(=O)N[C@@H](CCCNC(=N)N)C(=O)N[C@@H](CCCCN)C(=O)N[C@@H](CCC(=O)O)C(=O)N[C@@H](CO)C(=O)N[C@@H](CCCCN)C(=O)N[C@@H](CCCCN)C(=O)N1CCC[C@H]1C(=O)N1CCC[C@H]1C(=O)N[C@@H](C)C(=O)N[C@@H](CCCCN)C(=O)N[C@@H](CC(C)C)C(=O)N[C@@H](CCC(N)=O)C(=O)N1CCC[C@H]1C(=O)N[C@@H](CCCNC(=N)N)C(=O)O [Analog 13]	47	92.9 % of Dpr^3ghr	–	–	–	–	–
CCCCCCCC(=O)NC[C@H](NC(=O)[C@H](CO)NC(=O)CN)C(=O)N[C@@H](Cc1ccccc1)C(=O)N[C@@H](CC(C)C)C(=O)N[C@@H](CO)C(=O)N1CCC[C@H]1C(=O)N[C@@H](CCC(=O)O)C(=O)N[C@@H](Cc1c[nH]cn1)C(=O)N[C@@H](CCC(N)=O)C(=O)N[C@@H](CCCCN)C(=O)N[C@@H](C)C(=O)N[C@@H](CCC(N)=O)C(=O)N[C@@H](CCC(N)=O)C(=O)N[C@@H](CCCNC(=N)N)C(=O)N[C@@H](CCCCN)C(=O)N[C@@H](CCC(=O)O)C(=O)N[C@@H](CO)C(=O)N[C@@H](CCCCN)C(=O)N[C@@H](CCCCN)C(=O)N1CCC[C@H]1C(=O)N1CCC[C@H]1C(=O)N[C@@H](C)C(=O)N[C@@H](CCCCN)C(=O)N[C@@H](CC(C)C)C(=O)N[C@@H](CCC(N)=O)C(=O)N1CCC[C@H]1C(=O)N[C@@H](CCCNC(=N)N)C(=O)O [Dpr^3ghrelin, reference compound]	169	100 % of Dpr^3ghr	0.82	–	–	–	–
GSXFLSPEHQKAQQRKESKKPPAKLQPR (diaminopropionic acid (Dpr) bearing octanoyl at position 3, Synthetic ghrelin analog) [Dpr^3ghrelin]	–	–	–	16.3	169	0.68	–
XSXFLSPEHQKAQQRKESKKPPAKLQPR (sarcosine (Sar) at position 1; diaminopropionic acid N-myristoyl (Dpr-N-myr) at position 3, Synthetic ghrelin analog; also called analog 2) [ghrelin analog no. 2, (Sar)S(Dpr-N-myr)FLSPEHQKAQQRKESKKPPAKLQPR]	–	–	–	7.1	54	2.1	36.6
XSXXLSPEHQKAQQRKESKKPPAKLQPR (sarcosine (Sar) at position 1; diaminopropionic acid N-decanoyl (Dpr-N-dec) at position 3; 1-naphtylalanine (1-Nal) at position 4, Synthetic ghrelin analog) [ghrelin analog no. 3, (Sar)S(Dpr-N-dec)(1-Nal)LSPEHQKAQQRKESKKPPAKLQPR]	–	–	–	2.08	176	0.65	18.6
XSXXLSPEHQKAQQRKESKKPPAKLQPR (sarcosine (Sar) at position 1; diaminopropionic acid N-myristoyl (Dpr-N-myr) at position 3; 1-naphtylalanine (1-Nal) at position 4, Synthetic ghrelin analog) [ghrelin analog no. 4, (Sar)S(Dpr-N-myr)(1-Nal)LSPEHQKAQQRKESKKPPAKLQPR]	–	–	–	9.75	57	2.01	10.9
XSXXLSPEHQKAQQRKESKKPPAKLQPR (sarcosine (Sar) at position 1; diaminopropionic acid N-decanoyl (Dpr-N-dec) at position 3; cyclohexylalanine (Cha) at position 4, Synthetic ghrelin analog) [ghrelin analog no. 5, (Sar)S(Dpr-N-dec)(Cha)LSPEHQKAQQRKESKKPPAKLQPR]	–	–	–	3.28	110	1.04	10.6
XSXXLSPEHQKAQQRKESKKPPAKLQPR (sarcosine (Sar) at position 1; diaminopropionic acid N-myristoyl (Dpr-N-myr) at position 3; cyclohexylalanine (Cha) at position 4, Synthetic ghrelin analog) [ghrelin analog no. 6, (Sar)S(Dpr-N-myr)(Cha)LSPEHQKAQQRKESKKPPAKLQPR]	–	–	–	3.08	18	6.41	11.4
XSXFLSPEHQKAQQRKESKKPPAKLQPR (sarcosine (Sar) at position 1; diaminopropionic acid N-decanoyl (Dpr-N-dec) at position 3, Synthetic ghrelin analog) [ghrelin analog no. 1, (Sar)S(Dpr-N-dec)FLSPEHQKAQQRKESKKPPAKLQPR]	–	–	–	12.6	183	0.63	9.66
XSXFLSPEHQKAQQRKESKKPPAKLQPR (sarcosine (Sar) at position 1; diaminopropionic acid N-octanoyl (Dpr-N-oct) at position 3; Lys 24 N-palmitoyl (K(N-palm)), Synthetic ghrelin analog) [ghrelin analog no. 7, (Sar)S(Dpr-N-oct)FLSPEHQKAQQRKESKKPPAK(N-palm)LQPR]	–	–	–	–	19	6.09	–
XSXXLSPEHQKAQQRKESKKPPAKLQPR (sarcosine (Sar) at position 1; diaminopropionic acid N-octanoyl (Dpr-N-oct) at position 3; cyclohexylalanine (Cha) at position 4; Lys 24 N-palmitoyl (K(N-palm)), Synthetic ghrelin analog) [ghrelin analog no. 8, (Sar)S(Dpr-N-oct)(Cha)LSPEHQKAQQRKESKKPPAK(N-palm)LQPR]	–	–	–	–	6	20.8	–
XSXXLSPEHQKAQQRKESKKPPAKLQPR (not fully specified; sarcosine (Sar) at position 1; diaminopropionic acid N-octanoyl (Dpr-N-oct) at position 3; naphtylalanine (Nal) at position 4; Lys 24 N-palmitoyl (K(N-palm)), Synthetic ghrelin analog) [ghrelin analog no. 9, (Sar)S(Dpr-N-oct)(Nal)LSPEHQKAQQRKESKKPPAK(N-palm)LQPR]	–	–	–	–	5	23.3	–
XSXXLSPEHQKAQQRKESKKPPAKLQPR (sarcosine (Sar) at position 1; diaminopropionic acid N-octanoyl (Dpr-N-oct) at position 3; tertbutylalanine (tBu) at position 4, Synthetic ghrelin analog) [ghrelin analog no. 10, (Sar)S(Dpr-N-oct)(tBu)LSPEHQKAQQRKESKKPPAKLQPR]	–	–	–	–	24	4.71	–
XSXFLSPEHQKAQQRKESKKPPAKLQPR (sarcosine (Sar) at position 1; diaminopropionic acid N-10-undecynoyl (Dpr-N-10-undecyn) at position 3, Synthetic ghrelin analog) [ghrelin analog no. 11, (Sar)S(Dpr-N-10-undecyn)FLSPEHQKAQQRKESKKPPAKLQPR]	–	–	–	–	139	0.83	–
XSXFLSPEHQKAQQRKESKKPPAKLQPR (sarcosine (Sar) at position 1; diaminopropionic acid N-9-decenoyl (Dpr-N-9-decen) at position 3, Synthetic ghrelin analog) [ghrelin analog no. 12, (Sar)S(Dpr-N-9-decen)FLSPEHQKAQQRKESKKPPAKLQPR]	–	–	–	–	76	1.51	–
XSXXLSPEHQKAQQRKESKKPPAKLQPR (not fully specified; sarcosine (Sar) at position 1; diaminopropionic acid N-octanoyl (Dpr-N-oct) at position 3; dichlorophenylalanine (PheCl2) at position 4, Synthetic ghrelin analog) [ghrelin analog no. 13, (Sar)S(Dpr-N-oct)(PheCl2)LSPEHQKAQQRKESKKPPAKLQPR]	–	–	–	–	47	2.45	–
XSXXLSPEHQKAQQRKESKKPPAKLQPR (not fully specified; sarcosine (Sar) at position 1; diaminopropionic acid N-myristoyl (Dpr-N-myr) at position 3; dichlorophenylalanine (PheCl2) at position 4, Synthetic ghrelin analog; also called analog 14) [ghrelin analog no. 14, (Sar)S(Dpr-N-myr)(PheCl2)LSPEHQKAQQRKESKKPPAKLQPR]	–	–	–	–	7	16.8	–
[Sar]S[Dap](Decanoyl)FLSPEHQKAQQRK(Palmitoyl)ES [ghrelin analog no. 15, (Sar)S(Dpr-N-dec)FLSPEHQKAQQRK(N-palm)ES]	–	–	–	–	19	5.99	–
[Sar]S[Dap](Myristoyl)FLSPEHQKAQQRK(Palmitoyl)ES [ghrelin analog no. 16, (Sar)S(Dpr-N-myr)FLSPEHQKAQQRK(N-palm)ES]	–	–	–	–	2	51	–
[Sar]S[Dap](Decanoyl)FLSPEHQKAQQRKES [ghrelin analog no. 17, (Sar)S(Dpr-N-dec)FLSPEHQKAQQRKES]	–	–	–	–	30	3.71	–
GSS(Octanoyl)FLSPEHQKAQQRKESKKPPAKLQPR [Ghrelin]	–	–	–	–	100	–	–
[Sar]S[Dap](Myristoyl)FLSPEHQKAQQRKES [ghrelin analog no. 18, (Sar)S(Dpr-N-myr)FLSPEHQKAQQRKES]	–	–	–	–	34	3.38	–
